Values quoted from earlier work, collected in article PMC5242463.

Target: Trigger Factor (Escherichia coli) (UniProt P0A850)
Sequence (P0A850 whole entry): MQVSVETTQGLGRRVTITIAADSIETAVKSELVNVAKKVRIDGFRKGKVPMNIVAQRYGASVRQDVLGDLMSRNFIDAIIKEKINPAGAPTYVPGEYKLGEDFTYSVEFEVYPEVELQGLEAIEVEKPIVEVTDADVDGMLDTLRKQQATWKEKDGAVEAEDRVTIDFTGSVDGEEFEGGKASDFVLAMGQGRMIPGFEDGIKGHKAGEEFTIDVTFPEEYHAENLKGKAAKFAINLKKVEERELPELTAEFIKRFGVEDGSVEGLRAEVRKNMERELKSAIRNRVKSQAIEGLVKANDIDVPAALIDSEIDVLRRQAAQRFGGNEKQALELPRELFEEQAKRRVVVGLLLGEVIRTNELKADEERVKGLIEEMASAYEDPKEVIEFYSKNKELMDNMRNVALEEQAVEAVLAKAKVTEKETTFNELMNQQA

Sequence of Nascent Lep (P00803 whole entry): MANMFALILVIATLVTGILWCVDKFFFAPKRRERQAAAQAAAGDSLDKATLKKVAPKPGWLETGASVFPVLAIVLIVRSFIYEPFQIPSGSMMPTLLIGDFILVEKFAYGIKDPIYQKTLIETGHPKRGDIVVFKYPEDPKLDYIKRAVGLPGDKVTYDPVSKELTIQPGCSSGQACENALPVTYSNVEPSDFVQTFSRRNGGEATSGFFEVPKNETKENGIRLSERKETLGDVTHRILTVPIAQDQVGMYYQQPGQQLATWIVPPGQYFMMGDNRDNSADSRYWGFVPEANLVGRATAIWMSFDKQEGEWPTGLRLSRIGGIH

Kd: 0.311 µM
Substance: Nascent Lep (from UniProt P00803)
